Assay results published in patent US20200179511A1 (Novartis, published 2020).

Assays:
[1] = biological target: T1, human BCMA (B-cell maturation antigen) (human, UniProt Q02223 1-184); assay: cell-based or functional assay
T1 sequence (looked up): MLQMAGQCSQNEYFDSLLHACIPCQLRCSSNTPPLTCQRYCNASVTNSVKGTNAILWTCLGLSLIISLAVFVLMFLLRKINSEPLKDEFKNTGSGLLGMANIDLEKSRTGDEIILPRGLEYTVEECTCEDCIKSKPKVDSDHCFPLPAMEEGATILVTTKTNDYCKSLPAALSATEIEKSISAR

[2] = biological target: T1, human BCMA (B-cell maturation antigen); assay: cell-based or functional assay; remark: listed apart in the source

B1: Pfizer_CD3_H2B4_RRRR-Pfizer_BCMA_comboC29_EEEE hIgG2a_ASS (bispecific antibody)
heavy 1: EVQLLESGGGLVQPGGSLRLSCAASGFTFSSYPMSWVRQAPGKGLEWVSAIGGSGGSLPYADSVKGRFTISRDNSKNTLYLQMNSLRAEDTAVYYCARYWPMDIWGQGTLVTVSSASTKGPSVFPLAPCSRSTSESTAALGCLVKDYFPEPVTVSWNSGALTSGVHTFPAVLQSSGLYSLSSVVTVPSSNFGTQTYTCNVDHKPSNTKVDKTVERKCEVECPECPAPPVAGPSVFLFPPKPKDTLMISRTPEVTCVVVAVSHEDPEVQFNWYVDGVEVHNAKTKPREEQFNSTFRVVSVLTVVHQDWLNGKEYKCKVSNKGLPSSIEKTISKTKGQPREPQVYTLPPSREEMTKNQVSLTCEVKGFYPSDISVEWESNGQPENNYKTTPPMLDSDGSFFLYSKLTVDKSRWQQGNVFSCSVMHEALHNHYTQKSLSLSPGK
light 1: EIVLTQSPGTLSLSPGERATLSCRASQSVSSSYLAWYQQKPGQAPRLLMYDASIRATGIPDRFSGSGSGTDFTLTISRLEPEDFAVYYCQQYQSWPLTFGQGTKVEIKRTVAAPSVFIFPPSDEQLKSGTASVVCLLNNFYPREAKVQWKVDNALQSGNSQESVTEQDSKDSTYSLSSTLTLSKADYEKHKVYACEVTHQGLSSPVTKSFNRGEC
heavy 2: EVQLVESGGGLVQPGGSLRLSCAASGFTFSDYYMTWVRQAPGKGLEWVAFIRNRARGYTSDHNASVKGRFTISRDNAKNSLYLQMNSLRAEDTAVYYCARDRPSYYVLDYWGQGTTVTVSSASTKGPSVFPLAPCSRSTSESTAALGCLVKDYFPEPVTVSWNSGALTSGVHTFPAVLQSSGLYSLSSVVTVPSSNFGTQTYTCNVDHKPSNTKVDKTVERKCRVRCPRCPAPPVAGPSVFLFPPKPKDTLMISRTPEVTCVVVAVSHEDPEVQFNWYVDGVEVHNAKTKPREEQFNSTFRVVSVLTVVHQDWLNGKEYKCKVSNKGLPSSIEKTISKTKGQPREPQVYTLPPSREEMTKNQVSLTCLVKGFYPSDISVEWESNGQPENNYKTTPPMLDSDGSFFLYSRLTVDKSRWQQGNVFSCSVMHEALHNHYTQKSLSLSPGK
light 2: not shown
- Fold GSI Enhancement, RTCC assay, KMS11 target cells [1]: 48.3 fold
- IC50, RTCC assay, KMS11 target cells, No GSI [1]: 0.097 nM
- IC50, RTCC assay, KMS11 target cells, with GSI LY-450139 [1]: 0.002 nM
- IC50, RTCC assay, KMS11 target cells, with GSI PF-3084014 [1]: 0.002 nM
- IC50, RTCC assay, KMS11 target cells, with GSI PF-5212362 [1]: 0.002 nM

B2: Anti-BCMA J6M0 hIgG DLE CGW117 (MMAE) conjugate (antibody, V domains shown)
VH: QVQLVQSGAEVKKPGSSVKVSCKASGGTFSNYWMHWVRQAPGQGLEWMGATYRGHSDTYYNQKFKGRVTITADKSTSTAYMELSSLRSEDTAVYYCARGAIYDGYDVLDNWGQGTLVTVSS
VL: DIQMTQSPSSLSASVGDRVTITCSASQDISNYLNWYQQKPGKAPKLLIYYTSNLHSGVPSRFSGSGSGTDFTLTISSLQPEDFATYYCQQYRKLPWTFGQGTKLEIKR
modifications: drug conjugate CGW117 (MMAE); attachment site not stated
- Fold GSI Enhancement, ADC killing assay, MM1S cells [1]: 17.4 fold
- Fold GSI Enhancement, ADC killing assay, U266B1 cells [1]: 23.1 fold
- IC50, ADC killing assay, MM1S cells, No GSI [1]: 19.4 nM
- IC50, ADC killing assay, MM1S cells, with GSI LY-411575 [1]: 1.12 nM
- IC50, ADC killing assay, U266B1 cells, No GSI [1]: 6.04 nM
- IC50, ADC killing assay, U266B1 cells, with GSI LY-411575 [1]: 0.26 nM

B3: BCMA×CD3 bispecific antibody ER26 (bispecific antibody, human IgG1, kappa, N297A)
heavy: QVQLVQSGAEVKKPGSSVKVSCKASGGTFSNYWMHWVRQAPGQGLEWMGATYRGHSDTYYNQKFKGRVTITADKSTSTAYMELSSLRSEDTAVYYCARGAIYNGYDVLDNWGQGTLVTVSSASTKGPSVFPLAPSSKSTSGGTAALGCLVKDYFPEPVTVSWNSGALTSGVHTFPAVLQSSGLYSLSSVVTVPSSSLGTQTYICNVNHKPSNTKVDKRVEPKSCDKTHTCPPCPAPELLGGPSVFLFPPKPKDTLMISRTPEVTCVVVAVSHEDPEVKFNWYVDGVEVHNAKTKPREEQYNSTYRVVSVLTVLHQDWLNGKEYKCKVSNKALAAPIEKTISKAKGQPREPQVCTLPPSREEMTKNQVSLSCAVKGFYPSDIAVEWESNGQPENNYKTTPPVLDSDGSFFLVSKLTVDKSRWQQGNVFSCSVMHEALHNHYTQKSLSLSPGK
light: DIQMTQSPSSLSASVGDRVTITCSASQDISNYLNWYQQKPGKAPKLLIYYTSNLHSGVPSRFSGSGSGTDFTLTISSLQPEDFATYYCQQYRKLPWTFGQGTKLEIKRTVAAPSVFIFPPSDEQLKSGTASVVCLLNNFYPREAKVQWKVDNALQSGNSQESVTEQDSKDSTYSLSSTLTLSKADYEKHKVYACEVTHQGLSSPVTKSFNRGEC
chain: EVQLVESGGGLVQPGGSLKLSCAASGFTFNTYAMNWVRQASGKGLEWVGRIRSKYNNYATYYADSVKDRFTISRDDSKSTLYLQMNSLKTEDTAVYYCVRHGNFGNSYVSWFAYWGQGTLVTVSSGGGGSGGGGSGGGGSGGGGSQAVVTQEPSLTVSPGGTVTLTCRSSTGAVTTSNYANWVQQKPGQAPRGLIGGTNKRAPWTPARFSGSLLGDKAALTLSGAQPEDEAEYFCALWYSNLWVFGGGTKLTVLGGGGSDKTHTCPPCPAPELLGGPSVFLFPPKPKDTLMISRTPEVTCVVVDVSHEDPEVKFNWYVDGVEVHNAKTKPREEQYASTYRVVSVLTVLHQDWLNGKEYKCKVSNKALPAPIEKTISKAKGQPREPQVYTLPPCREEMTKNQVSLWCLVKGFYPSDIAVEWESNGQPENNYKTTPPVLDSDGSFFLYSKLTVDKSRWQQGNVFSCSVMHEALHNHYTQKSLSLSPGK
- fold enhancement of RTCC EC50 upon GSI treatment [2]: > 100 fold

B4: BCMA×CD3 bispecific antibody EM90 (bispecific antibody)
light: QAVVTQEPSLTVSPGGTVTLTCGSSTGAVTTSNYANWVQEKPGQAFRGLIGGTNKRAPGTPARFSGSLLGGKAALTLSGAQPEDEAEYYCALWYSNLWVFGGGTKLTVLGQPKAAPSVTLFPPSSEELQANKATLVCLISDFYPGAVTVAWKADSSPVKAGVETTTPSKQSNNKYAASSYLSLTPEQWKSHRSYSCQVTHEGSTVEKTVAPTECS
heavy 1: not shown
heavy 2: EVQLVESGGGLVKPGGSLRLSCAASGFTFSNSGMIWVRQAPGKGLEWVGHIRSKTDGGTTDYAAPVKGRFTISRDDSKNTLYLQMNSLKTEDTAVYYCTTGGSGSFDYWGQGTLVTVSSASTKGPSVFPLAPSSKSTSGGTAALGCLVKDYFPEPVTVSWNSGALTSGVHTFPAVLQSSGLYSLSSVVTVPSSSLGTQTYICNVNHKPSNTKVDKRVEPKSCDKTHTCPPCPAPEAAGGPSVFLFPPKPKDTLMISRTPEVTCVVVDVSHEDPEVKFNWYVDGVEVHNAKTKPREEQYNSTYRVVSVLTVLHQDWLNGKEYKCKVSNKALPAPIEKTISKAKGQPREPQVCTLPPSREEMTKNQVSLSCAVKGFYPSDIAVEWESNGQPENNYKTTPPVLDSDGSFFLVSKLTVDKSRWQQGNVFSCSVMHEALHNHYTQKSLSLSPGK
- fold enhancement of RTCC EC50 upon GSI treatment [2]: > 40 fold

B5: BCMA×CD3 bispecific antibody BU76 (bispecific antibody, human IgG1, kappa, N297A)
heavy: QIQLVQSGPELKKPGETVKISCKASGYTFTDYSINWVKRAPGKGLKWMGWINTETREPAYAYDFRGRFAFSLETSASTAYLQINNLKYEDTATYFCALDYSYAMDYWGQGTSVTVSSASTKGPSVFPLAPSSKSTSGGTAALGCLVKDYFPEPVTVSWNSGALTSGVHTFPAVLQSSGLYSLSSVVTVPSSSLGTQTYICNVNHKPSNTKVDKRVEPKSCDKTHTCPPCPAPELLGGPSVFLFPPKPKDTLMISRTPEVTCVVVDVSHEDPEVKFNWYVDGVEVHNAKTKPREEQYASTYRVVSVLTVLHQDWLNGKEYKCKVSNKALPAPIEKTISKAKGQPREPQVCTLPPSREEMTKNQVSLSCAVKGFYPSDIAVEWESNGQPENNYKTTPPVLDSDGSFFLVSKLTVDKSRWQQGNVFSCSVMHEALHNHYTQKSLSLSPGK
light: DIVLTQSPASLAMSLGKRATISCRASESVSVIGAHLIHWYQQKPGQPPKLLIYLASNLETGVPARFSGSGSGTDFTLTIDPVEEDDVAIYSCLQSRIFPRTFGGGTKLEIKRTVAAPSVFIFPPSDEQLKSGTASVVCLLNNFYPREAKVQWKVDNALQSGNSQESVTEQDSKDSTYSLSSTLTLSKADYEKHKVYACEVTHQGLSSPVTKSFNRGEC
chain: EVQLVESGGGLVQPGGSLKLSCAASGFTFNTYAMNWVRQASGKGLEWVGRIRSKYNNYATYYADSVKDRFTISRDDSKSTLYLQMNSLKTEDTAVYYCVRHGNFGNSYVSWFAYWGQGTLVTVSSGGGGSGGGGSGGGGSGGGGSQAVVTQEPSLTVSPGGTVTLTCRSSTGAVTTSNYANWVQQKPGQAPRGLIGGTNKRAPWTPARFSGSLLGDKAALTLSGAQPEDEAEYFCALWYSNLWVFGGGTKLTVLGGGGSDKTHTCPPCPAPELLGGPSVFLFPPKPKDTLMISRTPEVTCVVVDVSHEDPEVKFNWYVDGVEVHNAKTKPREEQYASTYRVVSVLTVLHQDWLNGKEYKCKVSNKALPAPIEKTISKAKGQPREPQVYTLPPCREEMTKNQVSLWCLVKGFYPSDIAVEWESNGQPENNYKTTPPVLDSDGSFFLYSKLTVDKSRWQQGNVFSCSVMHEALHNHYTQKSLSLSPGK
- fold enhancement of RTCC EC50 upon GSI treatment [2]: > 100 fold

B6: BCMA×CD3 bispecific antibody EE11 (bispecific antibody)
chain 1: not shown
chain 2: EVQLVESGGGLVQPGGSLKLSCAASGFTFNTYAMNWVRQASGKGLEWVGRIRSKYNNYATYYADSVKDRFTISRDDSKSTLYLQMNSLKTEDTAVYYCVRHGNFGNSYVSWFAYWGQGTLVTVSSGGGGSGGGGSGGGGSGGGGSQAVVTQEPSLTVSPGGTVTLTCRSSTGAVTTSNYANWVQQKPGQAPRGLIGGTNKRAPWTPARFSGSLLGDKAALTLSGAQPEDEAEYFCALWYSNLWVFGGGTKLTVLGGGGSDKTHTCPPCPAPELLGGPSVFLFPPKPKDTLMISRTPEVTCVVVAVSHEDPEVKFNWYVDGVEVHNAKTKPREEQYNSTYRVVSVLTVLHQDWLNGKEYKCKVSNKALAAPIEKTISKAKGQPREPQVCTLPPSRDELTKNQVSLSCAVKGFYPSDIAVEWESNGQPENNYKTTPPVLDSDGSFFLVSKLTVDKSRWQQGNVFSCSVMHEALHNHYTQKSLSLSPGK
- fold enhancement of RTCC EC50 upon GSI treatment [2]: ≥ 10 fold
